Residue numbers refer to the chain shown, from its start. Read-outs that look alike come from different tables or passages of the source.
T1: recombinant human LIGHT-214E, FLAG-tagged extracellular domain (human)
T1 chain: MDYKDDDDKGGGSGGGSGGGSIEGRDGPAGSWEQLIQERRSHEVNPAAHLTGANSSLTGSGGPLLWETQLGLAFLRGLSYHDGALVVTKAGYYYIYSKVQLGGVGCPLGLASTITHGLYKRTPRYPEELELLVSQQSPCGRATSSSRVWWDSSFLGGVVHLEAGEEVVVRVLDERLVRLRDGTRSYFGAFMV

T2: mouse LIGHT (mouse, UniProt Q9QYH9 72-239, limits assumed)
T2 construct: also called murine LIGHT
T2 sequence (looked up): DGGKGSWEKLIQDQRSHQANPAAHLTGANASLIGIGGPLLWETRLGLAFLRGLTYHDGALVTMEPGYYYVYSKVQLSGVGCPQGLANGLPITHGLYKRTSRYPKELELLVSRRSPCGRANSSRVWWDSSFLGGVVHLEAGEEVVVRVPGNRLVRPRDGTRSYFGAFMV

T3: recombinant human LIGHT-214K, FLAG-tagged extracellular domain (human)
T3 construct: the IgK leader peptide is marked only by underlining (not visible here), so its residues were not removed; Trimer
T3 chain: T1 chain with E166K

T4: rabbit LIGHT protein, FLAG-tagged extracellular domain (rabbit)
T4 chain: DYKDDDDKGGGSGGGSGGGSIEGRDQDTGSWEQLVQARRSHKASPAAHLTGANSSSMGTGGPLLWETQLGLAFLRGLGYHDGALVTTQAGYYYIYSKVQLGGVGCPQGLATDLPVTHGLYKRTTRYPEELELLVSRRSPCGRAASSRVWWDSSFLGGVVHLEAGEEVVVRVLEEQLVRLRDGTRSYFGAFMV

B1: 42A02 (purified from hybridoma supernatant) (antibody, V domains shown)
VH: EVQLVESGGGLVQPGGSLRLSCAASGFTFSSYVMSWVRQAPGKGLEWVSVISSSGVTTYYADSVKGRFTISRDNSKNTLYLQMNSLRAEETAVYYCAKGNYGSGSFCDYWGQGTPVTVSS
VL: SYVLTQPPSVSVAPGKTARITCGGNNIGSKSVHWYQQRPGQAPILVIYYDSDRPSGIPERFSGSNSGNSATLTISRVEAGDEADYHCQVWESSSDHPVFGGGTKLTVL
notes: Murine constant / human variable chimeric IgG, lambda, Protein G purified from hybridoma supernatant
B2: 98C07 in human IgG4(PE) format (antibody, V domains shown)
VH: QVQLVESGGGLVKPGGSLRLSCAASGFTFSDYYMSWIRQAPGKGLEWVSYISRSSFIYYSESVKGRFTISRDNAKNSLYLQMNSLRAEDTAVYYCARWELSPFDYWGQGTLVTVSS
VL: DIQMTQSPSSLSASVGDRVTITCRASQGISNYLAWFQQKPGKAPKSLIYAASSLQSGVPSKFSGSGSGTDFTLTISSLQPEDFATYFCQQYNTYPFTFGPGTKVDIK
B3: 29C09 (purified from hybridoma supernatant) (antibody, V domains shown)
VH: QEQLVQSGAEVKKPGASVKVSCKASGYTFTSYDINWVRQATGQGLEWMGWMNPNSGYTGYAQKFQGRVTMTRNTSIRTVYMELSSLRSEDTAVYYCARGGETFDIWGQGTMVTVSS
VL: SYELTQPPSVSVSPGQTARITCSGDALPKKYAYWYQQKSGQAPVLVIYEDSKRPSGIPERFSGSSSGTMATLTISGAQVEDEADYYCYSTDSSDNHSVFGTGTKVTVL
notes: as for B1
B4: 14B09 (purified from hybridoma supernatant) (antibody, V domains shown)
VH: QVQLVQSGAEVKKPGASVKVSCRASGYTFTSYLMHWVRQAPGQRLEWMGWINVGNGNTKYSQKFQGRVTITRDTSASTAYMELSGLRSEDTAVYYCARNYYNWFDPWGQGTLVTVSS
VL: QSALTQPASVSGSPGQSITISCTGTSSDVGGYNYVSWYQQHPGKAPKLMIYDVSKRPSGVSNRFSGSKSGNTASLTISGLQAEDEADYYCFSYAGSSTVVFGGGTKLTVL
notes: as for B1
B5: 13H04 (purified from hybridoma supernatant) (antibody, V domains shown)
VH: QVQLVQSGAEVKKPGASVKVSCKASGYTFTSYGISWVRQAPGQGLEWMGWISAHNANTNYAQKLQGRVTMTTDTSTSTAYMELRSLRSDDTAMYYCARLYRNWFDPWGQGTLVTVSS
VL: B4 VL with F91C, V99L, V100L
notes: as for B1
B6: 31A10 (purified from hybridoma supernatant) (antibody, V domains shown)
VH: QVQLQESGPGLVKPSGTLSLTCAVSGGSISSINWWNWVRQPPGKGLEWIGEVSHSGITNYNPSLKSRVTMSVDKAKNQFSLKLNSVTAADTAVYYCARERAVADYHGMDVWGQGTTVTVSS
VL: AIQLTQSPSSLSASVGDRVTITCRASQGISSALAWFQQKPGKPPKLLIFDASDLESGVSSRFSGSGSGTDFTLTISSLQPGDFATYYCQQFNSYPITFGQGTRLEIK
notes: Murine constant / human variable chimeric IgG, kappa, Protein G purified from hybridoma supernatant
B7: 31A10 in human IgG4(PE) format (antibody, V domains shown)
VH: B6 VH
VL: B6 VL
B8: 144F05 (purified from hybridoma supernatant) (antibody, V domains shown)
VH: QVQLQESGPGLVKPSGTLSLTCAVSGGSISSTHWWNWVRQPPGKGLEWIGEIYHSGSTNCNPSLKSRVTISVDKSKNQFSLKMNSVTAADTAVYYCTRGGAAAGTNYGLDVWGQGTTVTVSS
VL: not shown
notes: as for B6
B9: 62C01 (purified from hybridoma supernatant) (antibody, V domains shown)
VH: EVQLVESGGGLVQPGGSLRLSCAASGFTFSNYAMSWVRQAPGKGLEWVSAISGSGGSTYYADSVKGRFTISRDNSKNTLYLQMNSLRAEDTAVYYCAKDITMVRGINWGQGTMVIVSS
VL: DIQMTQSPSSVSASVGDRVTITCRASQGISNWLAWYQQKPGKAPKLLIFAASSLQSGVPSRFSGSGSGTDFTLTISSLQPEDFATYYCQQSNSFPLTFGGGTKVEIK
notes: as for B6

Experiments:
[1] = biological target: T1, recombinant human LIGHT-214E, …; experiment: cell-based or functional assay
[2] = biological target: T1, recombinant human LIGHT-214E, …; experiment: HTRF competition, LTβR-Fc binding to Flag-hLIGHT-214E
Protocol: (§1) The following methods were carried out with a titration of inhibitor in order to establish the clone potency as measured by IC50 values in the assay. 5 μl of Flag-tagged hLIGHT (in-house) diluted to 2.5 nM final concentration (10 nM working concentration) in HTRF buffer with 5 μl of a titration of antibody purified from hybridoma supernatant diluted in HTRF assay buffer from 300 nM final (1200 nM working concentration) was pre-incubated for 1 hour at room temperature. To wells used to define total binding, 5 μl of LIGHT (10 nM working, 2.5 nM final) and 5 μl of hybridoma maintaining media (HMM,)) were added. To wells used to define non specific binding (receptor only) 10 μl of HMM was added. Total and non specific binding wells were pre-incubated for 1 hr at RT in the same plate as wells containing titration of inhibitor.
(§2) LIGHT receptor was diluted in HTRF assay buffer and added to all wells, 5 μl/well of HVEM-Fc or LTβR-Fc (R&D systems) at 1.2 nM for HVEM (0.3 nM final) and 0.4 nM for LTβR (0.1 nM final).

mouse LIGHT = biological target: T2, mouse LIGHT; experiment: SPR ProteOn, mAb captured on anti-mouse IgG
[3] = biological target: T5, recombinant cynomolgus monkey LIGHT, FLAG-tagged extracellular domain (cynomolgus (Macaca fascicularis), UniProt E9NVF7 59-240); experiment: SPR ProteOn, mAb captured on anti-mouse IgG, LIGHT 256 nM, 25 C, apparent affinity
T5 construct: extracellular domain; also called cynomolgus LIGHT; cyno LIGHT
Protocol: (§3) SPR analysis was carried out using the ProteOn™ XPR36 Array System (BioRad). Anti-mouse IgG (GE Healthcare BR-1008-38) was immobilised on a GLC biosensor surface using amine coupling, the surface was then blocked using 1M ethanolamine. […] Apparent affinities for the LIGHT-antibody interaction were determined using the 1:1 model inherent to the ProteOn XPR36 analysis software. The assay was run using HBS-EP (Teknova) as running buffer and carried out at 25° C.

[4] = biological target: T3, recombinant human LIGHT-214K, …; experiment: as above
Protocol: as §3

[5] = biological target: T1, recombinant human LIGHT-214E, …; experiment: as above
Protocol: as §3

[6] = biological target: human LIGHT-214E, full length, expressed on the surface of CHO-S cells (human, UniProt O43557 1-240); experiment: flow cytometry, CHO-S cells expressing hLIGHT-214E
[7] = biological target: T1, recombinant human LIGHT-214E, …; experiment: HTRF competition, HVEM-Fc binding to Flag-hLIGHT-214E
Protocol: as §1, §2

[8] = biological target: T1, recombinant human LIGHT-214E, …; experiment: HTRF competition, AlexaFluor 647 HVEM-Fc binding to Flag-hLIGHT-214E
Protocol: as §1
(§4) The final IgG4(PE) format lead panel was analysed for neutralization activity as in Example 3. Antibodies were tested for their ability to neutralize LIGHT binding to its receptors, HVEM and LTβR, in an HTRF assay. Antibodies were also tested for their ability to neutralize LIGHT-induced IL-8 release by HT29 colon carcinoma cells.
(§5) HTRF assays were performed as per Example 3, with the following modifications: HVEM-Fc and LTβR-Fc were labelled with AlexaFluor 647, and an anti-Flag K antibody (Cisbio) was used for detection.

[9] = biological target: T1, recombinant human LIGHT-214E, …; experiment: cell-based or functional assay
[10] = biological target: T4, rabbit LIGHT protein, FLAG-tagged …; experiment: SPR ProteOn, mAb captured on anti-human IgG, 25 C
Protocol: This created a capture surface suitable for capturing human antibodies. The LIGHT antibodies were captured on this anti-human IgG surface, and then human and rabbit LIGHT proteins were passed over captured LIGHT Abs at a concentration of 200 nM. A buffer injection was used to double reference the LIGHT binding sensorgrams. The assay was run at 25° C., using HBS-EP as running buffer.

[11] = biological target: T5, recombinant cynomolgus monkey LIGHT, …; experiment: SPR ProteOn, mAb captured on anti-human IgG, 37 C
[12] = biological target: T1, recombinant human LIGHT-214E, …; experiment: SPR ProteOn, mAb captured on anti-human IgG, 37 C
[13] = biological target: T1, recombinant human LIGHT-214E, …; experiment: HTRF competition, AlexaFluor 647 LTβR-Fc binding to Flag-hLIGHT-214E
Protocol: as §1, §4, §5

Binder | HT29 IL-8 release, IC50 [1] [nM] | IC50 [2] [nM] | binding result (mouse LIGHT) | Kd [3] [nM] | Kd [4] [nM] | Kd [5] [nM] | binding result [6] | IC50 [7] [nM] | IC50 [8] [nM] | HT29 IL-8 release, IC50 [9] [nM] | binding result [10] | Kd [11] [nM] | Kd [12] [nM] | IC50 [13] [nM]
B1 | 0.917 | 1.65 | no binding | 0.084 | 0.161 | 0.062 | binds | 0.898 |  |  |  |  |  | 
B2 |  |  |  |  |  |  |  |  | 0.82 | 0.18 | binds | 0.202 | 0.018 | 1.62
B3 | 0.33 | 1.55 | no binding | 2.28 | 0.605 | 0.311 | binds | 0.922 |  |  |  |  |  | 
B4 | 1.31 | 1.57 | no binding | 0.156 | 3.37 | 0.492 | binds | 0.895 |  |  |  |  |  | 
B5 | 1.33 | 1.97 | no binding | 0.561 | 1.57 | 0.881 | binds | 1.09 |  |  |  |  |  | 
B6 | 0.217 | 1.45 |  |  | 0.349 |  | binds | 0.662 |  |  |  |  |  | 
B7 |  |  |  |  |  |  |  |  | 1.15 | 0.29 | binds |  |  | 2.19
B8 | 2.75 | 3.32 | no binding | 2.89 | 5.78 | 3.25 | binds | 1.34 |  |  |  |  |  | 
B9 | 0.578 | 2.66 |  | 1.64 | 23.6 | 1.02 | binds | 1.6 |  |  |  |  |  | 

From patent publication US20170320956A1 (KYMAB, published 2017)
